Experimental data: patent publication US20250163127A1

Experiments:
[1] = biological target: CD112R (human) (UniProt Q6DKI7); test: flow cytometry, transfected HEK293 cells
[2] = biological target: T1, CD226 (human) (UniProt Q15762); test: flow cytometry, transfected HEK293 cells
T1 sequence: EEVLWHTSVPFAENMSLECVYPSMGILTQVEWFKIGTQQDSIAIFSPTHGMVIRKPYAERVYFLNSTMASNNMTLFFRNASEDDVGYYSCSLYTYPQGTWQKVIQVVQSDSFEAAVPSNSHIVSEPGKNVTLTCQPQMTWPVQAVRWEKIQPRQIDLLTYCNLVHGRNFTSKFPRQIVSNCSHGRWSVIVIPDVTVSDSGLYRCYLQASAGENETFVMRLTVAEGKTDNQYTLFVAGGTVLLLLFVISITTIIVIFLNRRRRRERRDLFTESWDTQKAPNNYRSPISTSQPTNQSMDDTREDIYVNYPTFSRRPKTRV

[3] = biological target: T2, CD96 (human) (UniProt P40200); test: flow cytometry, transfected HEK293 cells
T2 sequence: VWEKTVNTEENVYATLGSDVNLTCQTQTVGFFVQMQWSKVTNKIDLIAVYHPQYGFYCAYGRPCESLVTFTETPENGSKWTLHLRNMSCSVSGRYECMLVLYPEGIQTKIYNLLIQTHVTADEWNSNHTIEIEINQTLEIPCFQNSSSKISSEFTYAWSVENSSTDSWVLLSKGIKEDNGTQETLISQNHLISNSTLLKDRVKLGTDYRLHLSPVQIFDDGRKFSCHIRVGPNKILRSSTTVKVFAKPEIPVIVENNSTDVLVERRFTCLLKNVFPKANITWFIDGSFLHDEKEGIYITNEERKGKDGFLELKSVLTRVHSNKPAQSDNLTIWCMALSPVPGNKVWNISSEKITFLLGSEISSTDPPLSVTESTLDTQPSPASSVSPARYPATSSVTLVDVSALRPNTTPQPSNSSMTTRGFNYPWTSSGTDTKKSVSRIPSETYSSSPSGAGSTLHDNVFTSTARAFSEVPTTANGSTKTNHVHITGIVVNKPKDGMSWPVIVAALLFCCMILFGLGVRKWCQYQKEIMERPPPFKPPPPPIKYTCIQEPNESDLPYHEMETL

[4] = biological target: T3, TIGIT (human) (UniProt Q495A1); test: flow cytometry, transfected HEK293 cells
T3 sequence: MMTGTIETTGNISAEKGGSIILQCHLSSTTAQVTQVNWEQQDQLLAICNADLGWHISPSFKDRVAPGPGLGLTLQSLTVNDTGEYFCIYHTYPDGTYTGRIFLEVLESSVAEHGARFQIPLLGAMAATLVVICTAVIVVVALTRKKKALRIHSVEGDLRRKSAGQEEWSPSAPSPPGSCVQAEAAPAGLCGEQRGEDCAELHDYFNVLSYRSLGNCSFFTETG

[5] = biological target: PD-L1 (human); test: flow cytometry, CHO cells expressing PD-L1
[6] = biological target: CD28 (human) (UniProt P10747); test: flow cytometry, Jurkat cells (CD28)

CD112R (human), sequence (Q6DKI7 whole entry): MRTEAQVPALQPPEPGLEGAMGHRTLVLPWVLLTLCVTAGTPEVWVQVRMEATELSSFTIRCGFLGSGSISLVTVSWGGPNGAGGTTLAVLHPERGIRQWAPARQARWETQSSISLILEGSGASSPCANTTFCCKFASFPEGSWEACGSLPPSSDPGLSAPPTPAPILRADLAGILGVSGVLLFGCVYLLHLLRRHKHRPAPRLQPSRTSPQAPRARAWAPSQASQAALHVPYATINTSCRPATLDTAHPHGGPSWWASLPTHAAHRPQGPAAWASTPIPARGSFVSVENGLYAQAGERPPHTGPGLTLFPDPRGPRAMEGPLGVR
PD-L1 (human), sequence (chain, as listed by the source): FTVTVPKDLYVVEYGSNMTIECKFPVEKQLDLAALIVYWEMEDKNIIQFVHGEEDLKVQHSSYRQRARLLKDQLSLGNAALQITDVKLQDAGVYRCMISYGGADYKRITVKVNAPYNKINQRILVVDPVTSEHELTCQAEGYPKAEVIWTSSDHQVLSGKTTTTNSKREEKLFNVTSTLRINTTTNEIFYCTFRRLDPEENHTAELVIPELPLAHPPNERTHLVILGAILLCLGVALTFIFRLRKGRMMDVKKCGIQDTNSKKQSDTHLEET

Question: How did the MFI at 100 nM [1] turn out when variant CD155 IgV-Fc, S42N (Fc fusion) was run?
Answer: 1700

Question: What about the MFI at 100 nM [2] of the same substance?
Answer: 1910

Question: What about the MFI at 100 nM [3] of the same substance?
Answer: 1690

Question: What does the source list for “variant CD155 IgV-Fc, S42C, S52L (Fc fusion)”?
Answer: MFI at 100 nM [2]: 2150; MFI at 100 nM [3]: 1480

Question: What does the source list for variant CD155 IgV-Fc, S52M (Fc fusion)?
Answer: MFI at 100 nM [2]: 1900; MFI at 100 nM [3]: 1610

Question: Which results are given for “variant CD155 IgV-Fc, S42N, S52E, V57L, L104E (Fc fusion)”?
Answer: MFI at 100 nM [1]: 1690; MFI at 100 nM [2]: 1740; MFI at 100 nM [3]: 1540

Question: variant CD155 IgV-Fc, S42A (Fc fusion) was tested. Which MFI at 100 nM [2] did it give?
Answer: 2190

Question: What about the MFI at 100 nM [3] of the same substance?
Answer: 1620

Question: Which results are given for “variant CD155 IgV-Fc, S42N, S52Q, Q62F (Fc fusion)”?
Answer: MFI at 100 nM [2]: 2150; MFI at 100 nM [4]: 2400; MFI at 100 nM [3]: 1740

Question: How did the MFI at 100 nM [2] turn out when variant CD155 IgV-Fc, S52R (Fc fusion) was run?
Answer: 3960

Question: What about the MFI at 100 nM [4] of the same substance?
Answer: 4400

Question: And the MFI at 100 nM [3]?
Answer: 4850

Question: “variant CD155 IgV-Fc, S42L, S52L, Q62F, L104Q (Fc fusion)” was tested. Which MFI at 100 nM [2] did it give?
Answer: 2640

Question: And the MFI at 100 nM [3]?
Answer: 2320

Question: What does the source list for variant CD155 IgV-Fc, S42Q (Fc fusion)?
Answer: MFI at 100 nM [2]: 2230; MFI at 100 nM [3]: 2140

Question: How did the MFI at 100 nM [2] turn out when variant CD155 IgV-Fc, S42W (Fc fusion) was run?
Answer: 2130

Question: What about the MFI at 100 nM [4] of the same substance?
Answer: 2430

Question: And the MFI at 100 nM [3]?
Answer: 2560

Question: For “variant CD80 E35D/K37E/M47V/N48D/L85Q/D90N (Fc fusion)”, which MFI at 33.3 nM [5] is on record?
Answer: 26500 MFI

Question: “variant CD155 IgV-Fc, S52M, Q62Y (Fc fusion)” was tested. Which MFI at 100 nM [1] did it give?
Answer: 1770

Question: What about the MFI at 100 nM [2] of the same substance?
Answer: 2000

Question: What about the MFI at 100 nM [3] of the same substance?
Answer: 1650

Question: For “variant CD80 E35D/M38T/D46E/M47V/N48S (Fc fusion)”, which MFI at 33.3 nM [5] is on record?
Answer: 19400 MFI

Question: Which results are given for “variant CD155 IgV-Fc, S52R, Q62F, L104Q, G111R (Fc fusion)”?
Answer: MFI at 100 nM [2]: 3170; MFI at 100 nM [4]: 2970; MFI at 100 nM [3]: 2360

Question: “variant CD155 IgV-Fc, S52L, L104E (Fc fusion)” was tested. Which MFI at 100 nM [1] did it give?
Answer: 1760

Question: And the fold increase to WT ECD [1]?
Answer: 0.99 fold

Question: What about the MFI at 100 nM [2] of the same substance?
Answer: 2210

Question: What about the MFI at 100 nM [4] of the same substance?
Answer: 4320

Question: What about the MFI at 100 nM [3] of the same substance?
Answer: 1830

Question: And the fold increase to WT ECD [3]?
Answer: 0.02 fold

Question: With “variant CD80 V22D/E35D/M47L/L70M/L97Q (Fc fusion)” as the substance, how does the MFI at 33.3 nM [6] read?
Answer: 527 MFI

Question: For variant CD155 IgV-Fc, G111R (Fc fusion), which MFI at 100 nM [2] is on record?
Answer: 2790

Question: And the MFI at 100 nM [3]?
Answer: 3320

Question: “variant CD155 IgV-Fc, S42N, L104Q, G111R (Fc fusion)” was tested. Which MFI at 100 nM [2] did it give?
Answer: 2310

Question: What about the MFI at 100 nM [4] of the same substance?
Answer: 2430

Question: And the MFI at 100 nM [3]?
Answer: 1960

Question: What does the source list for “variant CD155 IgV-Fc, S42A, S52L, L104E, G111R (Fc fusion)”?
Answer: MFI at 100 nM [1]: 1780; fold increase to WT ECD [1]: 1 fold; MFI at 100 nM [2]: 1890; MFI at 100 nM [4]: 2260; MFI at 100 nM [3]: 1610; fold increase to WT ECD [3]: 0.02 fold

Question: What does the source list for “variant CD155 IgV-Fc, S42A, S52Q, L104Q, G111R (Fc fusion)”?
Answer: MFI at 100 nM [2]: 2160; MFI at 100 nM [3]: 1640

Question: Which MFI at 100 nM [2] does the source give for “variant CD155 IgV-Fc, S52W, L104E (Fc fusion)” here?
Answer: 1910

Question: And the MFI at 100 nM [3]?
Answer: 1630

Question: How did the MFI at 25 nM [4] turn out when “CD155 variant IgV-Fc V9L, V11M, P18S, N35S, S54G, Q62K, L79P, L104M, T107M, V115M (Fc fusion)” was run?
Answer: 3000 MFI

Question: Which results are given for variant CD155 IgV-Fc, Q62F (Fc fusion)?
Answer: MFI at 100 nM [2]: 2570; MFI at 100 nM [4]: 2210; MFI at 100 nM [3]: 2760

Question: Which results are given for variant CD155 IgV-Fc, S52Q (Fc fusion)?
Answer: MFI at 100 nM [1]: 1790; fold increase to WT ECD [1]: 1 fold; MFI at 100 nM [2]: 2020; MFI at 100 nM [4]: 2290; MFI at 100 nM [3]: 1820; fold increase to WT ECD [3]: 0.02 fold

Question: What does the source list for variant CD155 IgV-Fc, S52L (Fc fusion)?
Answer: MFI at 100 nM [2]: 2680; MFI at 100 nM [4]: 2220

Question: What does the source list for variant CD155 IgV-Fc, S52W (Fc fusion)?
Answer: MFI at 100 nM [1]: 1610; MFI at 100 nM [2]: 2040; MFI at 100 nM [3]: 1710

Question: variant CD155 IgV-Fc, S42L (Fc fusion) was tested. Which MFI at 100 nM [1] did it give?
Answer: 1740

Question: What about the MFI at 100 nM [2] of the same substance?
Answer: 2190

Question: And the MFI at 100 nM [3]?
Answer: 1620
